Source: the domain aggregation screens of Martell et al. (2025)

Assay: soluble fraction after stress (log2 fold change); higher = more stays soluble; pooled small domains, quantitative proteomics
Settings: stress: pH 4
Procedure, shortened: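 Aggregation propensity is estimated from the fold change in each domain's soluble amount after acid stress. Pooled small-domain libraries were stressed at pH 4, and higher log2 values mean more stayed soluble.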

Row | Sequence | soluble fraction (log2)
1 | HMDTKLFNYGVGKHAYISWNEGGKRTAYIGFGNDGADVLTINNVKQGGSLGIYKDKITLNSQTVLTD | -0.381
2 | HMRRRVIGTLVMGDMSTDFKVLADGHTHRVLAAAISFHKAKPGDEVVILVPKSAPSKWAAVEHVMK | ≥ 0.43
3 | HMGRSYTIKSGDTLWAIATRYYGNGAQYSKIYNANKGTIESVAKSRGFRSSQNGHWIFPGTSITI | 0.056
4 | HMNRTEYMAALRRALSVLPEEERASALRYYEEYFDDAGPENEEKVIADLGAPEKVAGQILADYRE | -0.462
5 | HMSAATGIINTDNVNIRSGPATTYDAVGRLNQGSSVEILSSRNDWYQIQANSLKGWVRNDLLNVQK | 0.0683
6 | HMEGNWGLWAKVPNRFAALTTDKDSALRRFKSKEDGEAWMASHGLKPERFDVLEIPADYKPA | -0.0509
7 | HMKTLDAFFDQARDAYKKLKKDGDIDNLKVLRNQLQTVRETQGDAVRKKSKEEYRRLVDIIDDIDGLLAAF | -0.154
8 | HMAITLEQFLSVNPHIRNNLYGNAVELVKDKDFSVLSDKLKASSKWANEPSLYKILSHYDEIIS | 0.207
9 | HMKLTEGETIFLNESDTADWKKIPGIGSVYASRIVKYRNLLGGFVSVNQLREVYGIDDELFAKIYPYI | -0.0375
10 | HMATYTPYDKQGAKLWRVTAYLGMDSVTGKQRNMKKGGFKTKKEAQLYYNQVKLDFENGTLDQ | 0.22
11 | HMTISIAEQIFEQLEREILSGAYPRGELLTETKLSEKLGVSRTPIREALRRLDQEHIIKMTTKGAFVLGI | 0.198
12 | HMNALTEAESKLLERMNKAGIHAEITTKKAAGILQRSENGARTVLNSLVKKGYLTVETNKAPYIYHLH | 0.301
13 | HMPNILLSVKDASVAISVSSKMVRLLIASGRLKAVNLGKRMTRISLQELTDFAQRQGGNVVLP | -0.514
14 | HMIQADFIPQVEQRLADRGLSMSGDVMAAFLDRAGYGLRHVSNEIEKLSLYLGDRKKVTVEDVVQMVAPVR | -0.415
15 | HMKHRFVVGEVLSIGKLQHEITLKTAQGERKFQLDKQDLPASIQDGAKVRAELNEAGRVIDVHPLK | -0.178
16 | HMGSTDTLEDALEAAEKISYPVIIKATAGGGGRGMKVASSLEELKKVYHTTKLEAKNAFGNDQVYIEKYL | -0.0649
17 | HMEDPLAAQWKQGRKLFHDDYGYGIISKAFTAGDELVIMVQFENGGEKRFLPKYQAHNLLLVEQ | -1.3
18 | HMQSREISYSEFVTAVEAGDVRNVTLDGEQVRFRRADGSDYVTIRPEDAEVTKLLMANDIPVRAEP | -0.198
19 | HMVDSVIGSVGRVTVDIDNVEALGQVKLGGMEWSARSTSGDPIPAGTEVRVDRVEGVKVFVTPV | -0.203
20 | HMHQGTIEVGSIVHIEGQKALGTILSLTQREAIVGLGALKTTIPLKRLHLATEAEARRHKKSVTPQEAV | 0.284
21 | HMDRKARRKYIEQVVNDRKIETQEELLKLLTEAGFETTQATISRDIHALNIVKANDGDGHTHYVQLH | 0.0264
22 | HMPEPLTARETEVLRLLSGGYSNREIAAAMFLAEGTIKNHVSAVLLKLGVRDRTRAVLRGLELGLIQ | -1.4
23 | HMNQTGQYENAAKRFNQLITIDSSDKRAYLQLGISNYNLGNKEKADSLFNIIRNSKDKLLIEELDNFLT | -0.169
24 | HMDFGPDSAAPLADGSAPEGFDVKGNADSMLYHEPDGRWYDATVAEVWFRTAEAAQAAGFTKAGS | -2.02
25 | HMGPGDTTIPTTIIGMSLEEARNELSAAGLLVARIIPVDSNSRTGTVLKITPDAGSIIKAGSGVELEIAS | 0.206
26 | HMGNKDIEILFSEIVEMRNRIIHGFRITSKQGEQILATKTRKKDGNIQFEITKEYLLDFIKKNEELSDMLY | -1.49

Row | Sequence | soluble fraction (log2)
27 | HMRSKTDLVYEEIKKLILRGELSSDTPISENHLARRFEISRTPIREALKRLHIEGFVRIIPNHGVFVR | -0.304
28 | HMPVSDLQSALRNTLSKGDATDPAFRQRVYRAAMDALERATGSESDPQRRSEQKQRLIAVIRDMEASYRR | 0.101
29 | HMKSNIGENIRQLREKREMSVERVARMLEVKPATVIGWESGRELPEPAELGLLAKLFDVTVEELN | -0.0738
30 | HMKQIEEIIARYTNENTPLMMILSDVQREYGYIPLDVQELISEKTGIPVAEIYGVVTFYSFFSL | -0.337
31 | HMQKFLEATGENRDAAVENALEQLGLERDDVSVEVLEIGKKGFLGIGATPARVRVTYEAPDI | -1.51
32 | HMEHGQWLSEAQGASLAADWLARRRGVLPLNARRHLSGLSDQIARQIEGGLSREAGLYTAHEMMESLDP | -0.217
33 | HMPKMISPAQIKAIGAKTNNIAKASGVEQAQVYQSAVAHLGINNKSTKELTSQEASKVIEYLSTL | 0.158
34 | HMGTVKWFNATKGFGFIVPSDGGKDVFVHITAVQKAGLQGLNEGQKVSYEVAMERGKAAATNLR | -0.259
35 | HMDTVEALTEQLKKLDKRGEGQIPAPEFKQYMMNMGGKMTAEELDEMMKVADPGKEGVVNIAEFADAL | -0.229
36 | HMSRLGINTTIEDIKMVGKIIMPLLKQGQSVYQILASHPEIPYSEKTLYSYIEDNIFKDAGIDISVFDL | -0.491
37 | HMKQFVVQYYGIDGEVINSVYKNGMSDLTSYEPEKIDGKNFKGWSLSEDSKKVIDENYRINSDVNLYAVYT | 0.15
38 | HMNDLVTWDRYKIELGDTLSEIAQKLVTRVDILKTVNQIQGTRIIAGNSLMVPRTTDTNVLTYL | -0.728
39 | HMGLNLIGLKRSGFAPEEVKAMTRAYMYIFKSAEGNFESRLAKAHEKYKDDALIMEMVEFIDDALKG | -0.227
40 | HMYMWQVEDLIRANGLDIERIKDSIIRPYELDEERKRELTQWYEDLIDMMRREGVAQSGHLQIN | -2.24
41 | HMLQEFTLELATAVVQEFRDQPGALINALHKLQETFGYVDEAAMPVLARLFNLSRAEVHGVASFYHDFRRS | -1.35
42 | HMQDAVASEKIQLMSEALHARDTGDLLLAKEKVEKLIALAPNDKNIQALLLTINQSIEDKGL | -0.0958
43 | HMTVSIDSLFDKFEDLQEQGLGDKTEEGQELRGLIRAFIEQEHLSVRITRSTSNQELLDMIEEAMQ | -0.551
44 | HMRTGSSVLVGLVAPVRLGATGAPKVFADGALWEARSAVPLNDGQLVEITGTDGLTVLVKPSA | 0.138
45 | HMTKTRTEILEYLKQNWSVTVSASDIKKHLEEKEIKANTTTIYRYLDKLLAEHVIIKYADAGSERAVYQYS | -0.687
46 | HMPENESPEEKHARFRRFAEGLMARLDENESVRDILPELKVWLDDRELDRDDQRLARNLMLTAGKRE | -0.0664
47 | HMASDQGAGALREVSAFFEKHGRVPDPDAVDHDEMRLGSIWASIKSAPTDQMRLEDRFGLLD | -0.613
48 | HMSTDSTQLLGFNKTGEELPIYKEANEENKFAEIPQNVYVKNFGQNGEFTKIKYLDQEGYVKTAGLK | 0.199
49 | HMIDSDENERIKELIKALISETLKSRGVSPEVISDIKERVDRLHNEELPRFAAELKELISRN | -0.209
50 | HMGNFQNIFRKLRTSSNLTQNAIAEKLGISRSTIGMYETGAREPDFETLEKIADYFNVDTDFLLGRTNQTT | -0.0101
51 | HMAYLTVPAVIAKDTKKSIQLLESKGFEVVIQDSIYTDTLARGTVIKQLPDPNATVKINRTVYLTVNRYTP | -0.369
52 | HMPINPKVKQIYDTLKDGGADVGSEKEFNDYFFAKGKDGYNNRKEVFNTLREGGADAGKSYEEFAGWLGL | 0.206

Row | Sequence | soluble fraction (log2)
53 | HMELKFIGEAVNNPKRPLIAILGGAKVSDKIGVIENLLTKADKILIGGAMMFTFLKAEGKNIGTSLVED | -0.0167
54 | HMDTEIGDILALRQIMELLDEKDRQLIIMRYFQGLTQSVTAKNLNMTQVQVSRREKKLLTFMREQLL | -0.761
55 | HMLPPLGDQELELLRFITESAPITVREAAESYGKDRGLARTTVLTMMERLRAKGYLTRSESGAANEYSP | -0.148
56 | HMEDVSTLAVKQRIDDLVKQENPAKPLSDSDIVARLKTDGIYIARRTVAKYRMELNIPSSSARKRAQQFS | 0.266
57 | HMSAIEIDAEKILNYLTDRGGKMPYGDTTAPEVIKDKFNISKAAFKRALGFLLRSNKIEQIDGWTYI | -0.375
58 | HMKLRLGVNIDPVATVRNARGSAYPDPVRAAIIAQEAGADGITAHLREDRRHIVDQDITSIIKAIDIPLNF | -0.0902
59 | HMEELVGFEEKVRSILTSPLSAKEIKEKTHIEIDTRKLSKMLSELSFIKTEKKNGKKIFRLVS | -0.0997
60 | HMPYSAAVTFLDDAKQPMVNYNYRLIAENGIEVSGITDEFGKTQPIQTDQREKVDLYIADLPN | -0.37
61 | HMENVRKTEWVTISNDKSQTRTTVYFESGNQKLDKHPQIQGFEYQRTYVEGGVKYYLFVEKGTKLDE | 0.0865
62 | HMDNITIYSSNGKIYVNAIGGEKIELFNITGQKVAEKVAVSGINVLDAVYDITLVKVGSKVVKVV | -1.41
63 | HMGNRQEQVRIIRDLWRQLADAGQPVPAKHLTLDLDALDATQLTKLEDQAHGWLAKLSAQADLADAA | 0.22
64 | HMGTQKVQVVNGPINVRSGPGPTFEKIGMVEDQAVYQVVSKKDDWFQISLPGNKTAWVAGWLVKEIK | -0.0241
65 | HMGTKVGAPLPGTITEVKVKVGDTVKAGDAVIILEAMKMQNNIEAEVSGTVSSVLVKEGDTVMEGDALITI | -1.18
66 | HMREELIALYRAIARLSEDEQELLNLFYFARRPLSEIAQLTGMTPGAAKTRLYRARRHLRREMEEDGYG | -0.653
67 | HMKALYHQLVDLLKKRMESGMIPHDKLPSERELTAQYGVSRTTVRLALQELENTGYIYRRHGKGTFVSDI | 0.1
68 | HMKLSDDIIVDTIKEIIEENKNMIEQRKMGAMGPLMGKAMAKFKGKADGQTVSNVIKDEILNIIN | 0.0647
69 | HMTEFDVIMKSFGSEKIKVIKEVRAITGLGLAEAKALVEGVPAKIKEQVSKDDAEALKKQLEAVGAEVEL | -0.76
70 | HMNNIPFIITDERLNVIQSHLVPREVLDHPDRLRRQIDRFTEENQPKTVNYWWGPEHRHIIFYGKSK | 0.281
71 | HMPTKSDLLQWIKDRASKMGGAFTNSGAYALADAGVDGPRALSSEINKLLTYVNWERSVEADDVIRL | -0.296
72 | HMKINYNEFLRRFLGEKEGDIIEMETGKRIGTHKGYWFHTIGQRKGLGLGGGPWFVIRKDIDENIIYVSHG | -0.643
73 | HMETFEKIKELAKKRGKALGQVEEDLGYGRNTLYKIKNSTPNAERIAEIANYFNVSTDYLLGRTDNPTIAK | 0.104
74 | HMWSGEPFLDELRHADTLLETDPEAALAEYRALADKGSAAAMMALGNAYASGSHVARDEGEAEHWYRRAA | -0.752
75 | HMQENVIIYPNPTKSVIYLSEKVEFILYNILGEIIFIGDNNKIDLNSFDNGVYIFESGNVRTQIIK | 0.204
76 | HMAESSLPKMPRDESKYIYHSVQPGETVYSLSKRYSVSESDIVKSNPGIDITKLSLGLEVAIPRI | 0.0402
